B1: H4H3099S (antibody, human IgG4, V domains shown)
VH: QITLKESGPTLVKPTQTLTLTCTFSGFSLTTTGVGVGWIRQPPGKALEWLALIYWNDLKRYSPSLKNRLTITKDTSRHQVVLTMTNMDPMDTATYYCAHRPLYYGSGSGWFDPWGPGTTVTVSS
VL: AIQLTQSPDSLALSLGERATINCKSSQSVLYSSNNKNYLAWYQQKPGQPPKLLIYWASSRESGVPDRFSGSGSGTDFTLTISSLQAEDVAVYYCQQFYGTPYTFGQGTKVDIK
notes: human IgG4 Fc (H4H prefix)
B2: H4H3305N (antibody, human IgG4, V domains shown)
VH: QLQLQESGPGLVKPSETLSLTCIVSGGSISSSSYYWGWIRQPPGKGLEWIGSLYYSGITFYNPSLKSRVTISVDTSKNQFSLTLTSVTAADTAVFYCARHRVMASSPFDHWGQGTLVTVSS
VL: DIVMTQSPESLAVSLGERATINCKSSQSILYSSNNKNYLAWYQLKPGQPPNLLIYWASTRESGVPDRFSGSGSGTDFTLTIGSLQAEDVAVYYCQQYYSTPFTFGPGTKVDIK
notes: human IgG4 Fc (H4H prefix)
B3: H4H3094P (antibody, human IgG4, V domains shown)
VH: EVQLVESGGGLVQPGGSLRLSCAASGFTFSSYWMSWVRQAPGKGLEWVANMNQDGSETHYVDSVKGRLSISRDNAKKSLFLHMNSLRAEDTAVYFCARDLVPPRQDDYYYYFGMDVWGHGTTVTVSS
VL: DIQMTQSPSTLSASVGDRVTITCRASQSISDWLAWYQQKPGKAPKLLIFKASTLESGVPSRFSGSGSGTEFTLTISSLQPDDFATYYCQQYNSYSRTFGQGTKVEIK
notes: also called H4H3394P
B4: H4H3374N (antibody, human IgG4, V domains shown)
VH: QLQLQESGPGLVKPSETLSLTCTVSGGSITSSSYYWGWIRQPPGKGLEWIGSIYYRGSTNYNPSLKSRVTISVDSSKNQFYLKVSSVTAVDTAVYYCARQNGAARPSWFDPWGQGTLVTVSS
VL: EIVLTQSPDTISLSPGERATLSCRASQSISSIYLAWYQQKPGQAPRLLIYGASSRVTGIPDRFSVSGSGTDFTLTISRLEPEDFAVYYCQHYGISPFTFGPGTKVDIR
notes: human IgG4 Fc (H4H prefix)

Key:
hPDGFRb.mmh [1] = target: T1, hPDGFRb.mmh (human, UniProt P09619 33-531); assay: SPR, mAb captured, 25 C
T1 construct: Soluble monomeric construct; also called soluble human PDGFR-beta.mmh
Procedure: (§1) Antibodies, expressed as either mouse Fc (prefix H1M; H2M) or human Fc (prefix H4H), were captured on their respective anti-Fc sensor surfaces (Mab capture format). […] Kinetic association (kₐ) and dissociation (kd) rate constants were determined by processing and fitting the data to a 1:1 binding model using Scrubber 2.0 curve fitting software.

human PDGFRb.hFc [2] = target: T2, human PDGFRb.hFc (human); assay: SPR, mAb captured, 25 C
T2 construct: Soluble dimeric construct with human Fc; also called hPDGFRb.hFc
Procedure: as §1

[3] = target: T3, Macaca fascicularis PDGFRb.mmh (Macaca fascicularis); assay: SPR, mAb captured, 25 C
T3 construct: Soluble monomeric construct; also called mfPDGFRb.mmh
T3 chain: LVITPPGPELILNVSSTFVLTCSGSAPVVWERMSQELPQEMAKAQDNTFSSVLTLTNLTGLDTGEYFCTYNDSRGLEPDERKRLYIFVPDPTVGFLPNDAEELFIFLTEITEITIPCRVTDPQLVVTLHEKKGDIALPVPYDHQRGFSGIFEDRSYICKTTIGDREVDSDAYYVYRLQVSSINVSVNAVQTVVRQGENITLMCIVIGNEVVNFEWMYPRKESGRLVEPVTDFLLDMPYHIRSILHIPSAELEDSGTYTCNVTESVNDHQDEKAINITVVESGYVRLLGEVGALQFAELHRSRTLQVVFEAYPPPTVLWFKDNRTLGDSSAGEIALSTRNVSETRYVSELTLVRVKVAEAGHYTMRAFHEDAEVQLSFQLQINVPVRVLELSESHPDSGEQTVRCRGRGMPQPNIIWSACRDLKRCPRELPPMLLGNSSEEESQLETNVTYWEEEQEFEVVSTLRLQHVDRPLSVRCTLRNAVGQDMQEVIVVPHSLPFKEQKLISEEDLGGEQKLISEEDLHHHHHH
Procedure: as §1

hPDGFRb.mmh [4] = target: T1, hPDGFRb.mmh; assay: SPR, mAb captured, 37 C
Procedure: as §1

human PDGFRb.hFc [5] = target: T2, human PDGFRb.hFc; assay: SPR, mAb captured, 37 C
Procedure: as §1

[6] = target: T3, Macaca fascicularis PDGFRb.mmh; assay: SPR, mAb captured, 37 C
Procedure: as §1

[7] = target: full length human PDGFR-beta on HEK293 cells (human, UniProt P09619 33-1106); assay: cell-based or functional assay
hPDGFRb.mmh [8] = target: T1, hPDGFRb.mmh; assay: Octet BLI cross-competition, 25 C; hPDGFRb.mmh on anti-Penta-His tips pre-saturated with mAb-1 H4H3094P (row 5)
Procedure: (§2) A cross-competition assay was conducted to assess the ability of select antibodies to compete with one another for binding to human PDGFR-beta. […] Each PDGFR-beta.mmh-coated sensor tip was saturated for 5 min with a first anti-PDGFR-beta antibody (Mab #1; 50 μg/mL). Next, each sensor tip was saturated with a solution of a second anti-PDGFR-beta antibody (Mab #2). The real time response of Mab #2 binding to PDGR-beta.mmh pre-complexed with Mab #1 was then monitored. All assays were performed at 25° C. with a flow rate of 1000 rpm on an Octet RED384 biosensor in Octet HBST buffer according to manufacturer's instructions (ForteBio Corp., Menlo Park, Calif.). Results are illustrated in FIG. 2.

[9] = target: T4, PDGFR-beta extracellular domain construct D1 (human); assay: SPR, mAb captured, construct as analyte
T4 chain: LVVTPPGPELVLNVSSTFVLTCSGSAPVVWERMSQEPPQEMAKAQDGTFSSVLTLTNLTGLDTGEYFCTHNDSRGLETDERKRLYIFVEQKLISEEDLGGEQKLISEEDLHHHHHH
Procedure: Four different anti-PDGFR-beta antibodies were tested for binding to the various constructs by surface plasmon resonance (Biacore). Briefly, 150-200 RU's of anti-PDGFR beta antibody was captured via an anti-human Fc CM5 chip. Next, the individual domain constructs, or full-length PDGFR beta, was applied over the antibody-bound surface at a concentration of 50nM. The ability of the various antibodies to bind to the various domain constructs was measured. (−)=No binding observed; (+)=Binding observed; ND=Not determined.

hPDGFRb.mmh [10] = target: T1, hPDGFRb.mmh; assay: Octet BLI cross-competition, 25 C; hPDGFRb.mmh on anti-Penta-His tips pre-saturated with mAb-1 H4H3365N (row 2)
Procedure: as §2

hPDGFRb.mmh [11] = target: T1, hPDGFRb.mmh; assay: Octet BLI cross-competition, 25 C; hPDGFRb.mmh on anti-Penta-His tips pre-saturated with mAb-1 H4H3103S (row 4)
Procedure: as §2

hPDGFRb.mmh [12] = target: T1, hPDGFRb.mmh; assay: Octet BLI cross-competition, 25 C; hPDGFRb.mmh on anti-Penta-His tips pre-saturated with mAb-1 H4H3107S (row 7)
Procedure: as §2

Kd (hPDGFRb.mmh [1]) [nM]	koff (hPDGFRb.mmh [1]) [s⁻¹]	kon (hPDGFRb.mmh [1]) [M⁻¹ s⁻¹]	t1/2 (hPDGFRb.mmh [1]) [min]	Kd (human PDGFRb.hFc [2]) [nM]	koff (human PDGFRb.hFc [2]) [s⁻¹]	kon (human PDGFRb.hFc [2]) [M⁻¹ s⁻¹]	t1/2 (human PDGFRb.hFc [2]) [min]	Kd [3] [nM]	koff [3] [s⁻¹]	kon [3] [M⁻¹ s⁻¹]	t1/2 [3] [min]	Kd (hPDGFRb.mmh [4]) [nM]	koff (hPDGFRb.mmh [4]) [s⁻¹]	kon (hPDGFRb.mmh [4]) [M⁻¹ s⁻¹]	t1/2 (hPDGFRb.mmh [4]) [min]	Kd (human PDGFRb.hFc [5]) [nM]	koff (human PDGFRb.hFc [5]) [s⁻¹]	kon (human PDGFRb.hFc [5]) [M⁻¹ s⁻¹]	t1/2 (human PDGFRb.hFc [5]) [min]	also measured	Binder
1.16	0.000169	145000	68	0.23	5.48e-05	238000	211	0.987	0.000164	166000	71	2.39	0.000639	267000	18	0.193	0.000105	540000	110	Kd [6]: 2.17 nM; koff [6]: 0.000652 s⁻¹; kon [6]: 300000 M⁻¹ s⁻¹; t1/2 [6]: 18 min; IC50, blocking PDGF-BB (250 pM) activation, SRE-luciferase [7]: 2.1e-10 M; IC50, blocking PDGF-DD (400 pM) activation, SRE-luciferase [7]: 1.9e-10 M; Response of mAb-2 Binding to hPDGFRβ.mmh Pre-Complexed with mAb-1 (nm) (hPDGFRb.mmh [8]): 0.35 nm; binding result [9]: no binding (tested: 50nM); Response of mAb-2 Binding to hPDGFRβ.mmh Pre-Complexed with mAb-1 (nm) (hPDGFRb.mmh [10]): 0.33 nm; Response of mAb-2 Binding to hPDGFRβ.mmh Pre-Complexed with mAb-1 (nm) (hPDGFRb.mmh [11]): 0.34 nm	B1
1.81	0.000109	59900	106	0.248	3.42e-05	138000	338	1.82	0.000111	61200	104	1.93	0.000355	184000	33	0.197	4.85e-05	247000	238	Kd [6]: 2.04 nM; koff [6]: 0.00039 s⁻¹; kon [6]: 191000 M⁻¹ s⁻¹; t1/2 [6]: 30 min; IC50, blocking PDGF-BB (250 pM) activation, SRE-luciferase [7]: 5e-10 M; IC50, blocking PDGF-DD (400 pM) activation, SRE-luciferase [7]: 4.8e-10 M; Response of mAb-2 Binding to hPDGFRβ.mmh Pre-Complexed with mAb-1 (nm) (hPDGFRb.mmh [12]): 0 nm; Response of mAb-2 Binding to hPDGFRβ.mmh Pre-Complexed with mAb-1 (nm) (hPDGFRb.mmh [8]): 0.27 nm; binding result [9]: no binding (tested: 50nM); Response of mAb-2 Binding to hPDGFRβ.mmh Pre-Complexed with mAb-1 (nm) (hPDGFRb.mmh [10]): 0.26 nm; Response of mAb-2 Binding to hPDGFRβ.mmh Pre-Complexed with mAb-1 (nm) (hPDGFRb.mmh [11]): 0.25 nm	B2
1.56	0.000257	165000	45	0.256	6.2e-05	242000	186	1.63	0.000289	177000	40	6.58	0.00147	223000	8	0.877	0.000248	283000	47	Kd [6]: 6.69 nM; koff [6]: 0.0017 s⁻¹; kon [6]: 253000 M⁻¹ s⁻¹; t1/2 [6]: 7 min; IC50, blocking PDGF-BB (250 pM) activation, SRE-luciferase [7]: 4e-10 M; IC50, blocking PDGF-DD (400 pM) activation, SRE-luciferase [7]: 3.9e-10 M; Response of mAb-2 Binding to hPDGFRβ.mmh Pre-Complexed with mAb-1 (nm) (hPDGFRb.mmh [12]): 0.23 nm; binding result [9]: no binding (tested: 50nM); Response of mAb-2 Binding to hPDGFRβ.mmh Pre-Complexed with mAb-1 (nm) (hPDGFRb.mmh [11]): 0.02 nm	B3
1.26	0.000358	283000	32	0.148	8.93e-05	600000	129	1.66	0.000472	284000	24	1.84	0.00126	685000	9	0.178	0.000291	1.63e+06	40	Kd [6]: 2.63 nM; koff [6]: 0.00177 s⁻¹; kon [6]: 670000 M⁻¹ s⁻¹; t1/2 [6]: 7 min; IC50, blocking PDGF-BB (250 pM) activation, SRE-luciferase [7]: 1.3e-10 M; IC50, blocking PDGF-DD (400 pM) activation, SRE-luciferase [7]: 1.5e-10 M; Response of mAb-2 Binding to hPDGFRβ.mmh Pre-Complexed with mAb-1 (nm) (hPDGFRb.mmh [12]): 0.24 nm; Response of mAb-2 Binding to hPDGFRβ.mmh Pre-Complexed with mAb-1 (nm) (hPDGFRb.mmh [8]): 0 nm; binding result [9]: no binding (tested: 50nM); Response of mAb-2 Binding to hPDGFRβ.mmh Pre-Complexed with mAb-1 (nm) (hPDGFRb.mmh [10]): 0.01 nm; Response of mAb-2 Binding to hPDGFRβ.mmh Pre-Complexed with mAb-1 (nm) (hPDGFRb.mmh [11]): 0.02 nm	B4

From patent US20170210813A1 (Regeneron, published 2017)
